Reference: patent US8710017B2, “Human and mouse targeting peptides identified by phage display” (priority 2000, dated 2014)
Bridge positions count the residues as written; N and C are the ends. Ends that are not written are not given here. Peptide text beside a SMILES is read from it. * marks the point of attachment. Cbz = O=C(OCc1ccccc1)*; CH2F = FC*

Key:
HUVEC = assay: Apoptosis by chromatin fragmentation (agarose gel) in HUVEC; format: cell-based, human
Procedure: 10^6 HUVEC were treated with 15 μM of VISY antennapedia (penetratin) chimera or 15 μM of antennapedia peptide (pentratin) alone for 2-4 hours and chromatin fragmentation was analyzed by electrophoresis in an agarose gel.

[1] = target: T1, β5 integrin cytoplasmic domain (Homo sapiens, UniProt P18084); assay: Phage binding to immobilized GST-β5cyto; conditions: for β5/GST Ratio: colonies from β5-GST wells divided by GST
T1 construct: the screenings involving the β5 cytoplasmic domain fusion protein
T1 sequence (P18084 743-799 limits assumed): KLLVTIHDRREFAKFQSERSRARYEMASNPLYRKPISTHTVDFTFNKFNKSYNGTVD
Procedure: FIG. 10. Binding of β5 cytoplasmic domain-selected phage to immobilized proteins. GST fusion proteins or GST alone were coated on microtiter wells at 10 μg/ml and used to bind phage expressing endostatin binding peptides. […] The data represent the mean colony counts from triplicate wells, with standard error less than 10% of the mean.
β3 and β5 cytoplasmic domain-binding peptides were isolated by screening multiple phage libraries with recombinant GST fusion proteins that contained either GST-β3cyto or GST-β5cyto coated onto microtiter wells. Immobilized GST was used as a negative control for enrichment during the panning of each cytoplasmic domain. Phage were sequenced from randomly selected clones after three rounds of panning as disclosed elsewhere (Koivunen et al., 1995; Pasqualini et al., 1995). Distinct sequences were isolated that interacted specifically with the β3 or with the β5 cytoplasmic domains (Table 9). Randomly selected clones from panning rounds II and III were sequenced. Amino acid sequences of the phagemid encoded peptides were deduced from nucleotide sequences. The ratios were calculated by dividing the number of colonies recovered from β3-GST-coated wells and those recovered from GST or BSA.
A similar strategy was used to determine the specificity of the phage isolated in the screenings involving the β5 cytoplasmic domain fusion protein.
To determine whether the binding of the selected motifs was specific for each cytoplasmic domain, binding assays were performed comparing the interaction of individual phage motifs with β1, β3, or β5 cytoplasmic domain fusion proteins. […] Both the β3- and β5-selected phage selectively interacted with the proteins on which they were originally selected, with average binding selectivities observed of β3/β1=3.9, β3/β5=3.7, β5/β1=4.8, and β5/β3=6.9 (not shown). The average selectivity for integrin cytoplasmic domains versus BSA was about one to two orders of magnitude (not shown). None of the phage tested seemed to bind strongly to the β1 cytoplasmic domain (not shown).

APA (SK-RC-49/APA cells) [2] = target: T2, APA (SK-RC-49/APA cells) (Homo sapiens, UniProt Q07075); assay: Phage binding specificity assay on SK-RC-49/APA cells; format: cell-based; conditions: for displacement of phage binding by CPRECESIC peptide: data not shown
T2 construct: The renal carcinoma cell line SK-RC-49 was transfected with an expression vector encoding full-length APA cDNA; expressed in transfected cells; host or cells: SK-RC-49 renal carcinoma cells, stably transfected (G418)
Procedure: The cell binding assay was performed with an input of 10^9 TU as described for the cell panning. The specificity was confirmed by adding […] (SEQ ID NO:123) peptide to the binding medium in increasing concentrations. For phage binding on immunocaptured APA, wells were blocked for 1 h at room temperature with PBS/3% BSA and incubated with 10^9 TU for 1 h at room temperature in 50 μl PBS/3% BSA. After eight washes in PBS/1% BSA/0.01% Tween-20 and two washes in PBS, phage were rescued by adding 200 μl of exponentially growing K91Kan E. coli. Each experiment was repeated at least three times.

APA (SK-RC-49/APA cells) [3] = target: T2, APA (SK-RC-49/APA cells); assay: Cell panning of CX3CX3CX3C phage library on SK-RC-49/APA cells (insert frequency); format: cell-based; conditions: for Round 2 (%): share of 18 randomly selected phage inserts
Procedure: A CX3CX3CX3C(C, cysteine; X, any amino acid) library was prepared (Rajotte et al., 1998). […] Cells were detached by incubation with 2.5 mM EDTA in PBS, washed once in binding medium (DMEM high glucose supplemented with 20 mM HEPES and 2% FCS), and resuspended in the same medium at a concentration of 2×10^6 cells/ml. 10^10 TU of phage were added to 500 μl of the cell suspension, and the mixture was incubated overnight (first round) or for 2 h (successive rounds) at 4° C. with gentle rotation. Cells were washed five times in binding medium at room temperature and resuspended in 100 μl of the same medium. Phage were rescued by adding 1 ml of exponentially growing K91Kan Escherichia coli bacteria and incubating the mixture for 1 h at room temperature. Bacteria were diluted in 10 ml of LB medium supplemented with 0.2 μg/ml tetracycline and incubated for another 20 min at room temperature. Serial dilutions were plated on LB plates containing 40 μg/ml tetracycline, and plates were incubated at 37° C. overnight before colonies were counted.
The CX3CX3CX3C phage library (10^10 transducing units [TU]) was preadsorbed on parental SK-RC-49 cells to decrease nonspecific binding. […] SK-RC-49/APA-bound phage were amplified and used for two consecutive rounds of selection.

[4] = system: MDA-MB-435-derived tumor xenografts; assay: In vivo tumor homing of APA-binding phage; set-up: species or system mouse; conditions: 10^9 TU iv, 5 min circulation, FIG. 22
Procedure: MDA-MB-435-derived tumor xenografts were established in female nude mice 2 months old (Jackson Labs, Bar Harbor, Me.). Mice were anesthetized with Avertin and injected intravenously through the tail vein with 10^9 TU of the phage in a 200 μl volume of DMEM. The phage were allowed to circulate for 5 min, and the animals were perfused through the heart with 5 ml of DMEM. The tumor and brain were dissected from each mouse, weighed, and equal amounts of tissue were homogenized. The tissue homogenates were washed three times with ice-cold DMEM containing a proteinase inhibitor cocktail and 0.1% BSA. Bound phage were rescued and counted as described for cell panning. Fd-tet phage was injected at the same input as a control. The experiment was repeated twice. In parallel, part of the same tissue samples were fixed in Bouin solution, and imbedded in paraffin for preparation of tissue sections. An antibody to M-13 phage (Amersham-Pharmacia) was used for the staining.

HUVECs [5] = assay: HUVEC chemotaxis assay (Boyden chamber, VEGF-A); format: cell-based, human; conditions: 1 mM, VEGF-A 10 ng/ml, 5 h, FIG. 24
Procedure: FIG. 24. […] (SEQ ID NO:123) inhibits HUVEC migration. HUVECs were stimulated with VEGF-A (10 ng/ml). The assay was performed in a Boyden microchemotaxis chamber, and cells were allowed to migrate through an 8-μm pore filter for 5 h at 37° C. […] (SEQ ID NO:124) (control) and […] (SEQ ID NO:123) peptides were tested at 1 mM concentration. Migrated cells were stained and five high-power fields (magnitude 100×) for each microwell were counted. Error bars are the standard error of the means of triplicate microwells.
A cell migration assay was performed in a 48-well microchemotaxis chamber (NeuroProbe, Gaithersburg, Md.) according to Bussolini et al. (1995). Polyvinylpyrrolidone-free polycarbonate filters (Nucleopore, Cambridge, Mass.) with 8-μm pores were coated with 1% gelatin for 10 min at room temperature and equilibrated in M199 medium supplemented with 2% FCS. […] (SEQ ID NO:123) or control […] (SEQ ID NO:124) peptide (1 mM) was placed in the lower compartment of a Boyden chamber in M199 medium supplemented with 2% FCS and 10 ng/ml VEGF-A (R&D System). Subconfluent cultures that had been starved overnight were harvested in PBS containing 2.5 mM EDTA, washed once in PBS, and resuspended in M199 medium containing 2% FCS at a final concentration of 2×10^6 cells/ml. After the filter was placed between the lower and upper chambers, 50 μl of the cell suspension was seeded in the upper compartment, and cells were allowed to migrate for 5 h at 37° C. in a humidified atmosphere with 5% CO2. The filter was then removed, and cells on the upper side were scraped with a rubber policeman. Migrated cells were fixed in methanol and stained with Giemsa solution (Diff-Quick, Baxter Diagnostics, Rome, Italy). Five random high-power fields (magnitude 100×) were counted in each well. Each assay was run in triplicate.

HUVECs [6] = assay: HUVEC cell growth assay (crystal violet, VEGF-A); format: cell-based, human; conditions: 1 mM, VEGF-A 10 ng/ml, FIG. 25
Procedure: FIG. 25. […] (SEQ ID NO:123) inhibits HUVEC proliferation. Cells were stimulated with VEGF-A (10 ng/ml), and growth was evaluated at the indicated times by a colorimetric assay based on crystal violet staining. Error bars are the standard error of the means of triplicate wells. Each experiment was repeated at least twice with similar results.
HUVECs were seeded in 48-well plates (10^4 cells/well) and allowed to attach for 24 h in complete M199 medium. The cells were then starved in M199 medium containing 2% FCS for 24 h. […] (SEQ ID NO:123) or control […] (SEQ ID NO:124) peptide (1 mM) was added to the wells in medium containing 2% FCS and 10 ng/ml VEGF-A (R&D System, Abingdom, UK). After incubation for the indicated times, cells were fixed in 2.5% glutaraldehyde, stained with 0.1% crystal violet in 20% methanol, and solubilized in 10% acetic acid. All treatments were done in triplicate. Cell growth was evaluated by measuring the O.D. at 590 nm in a microplate reader (Biorad, Hercules, Calif.). A calibration curve was established and a linear correlation between O.D. and cell counts was observed between 10^3 and 10^5 cells.

[7] = system: chicken chorioallantoic membrane (CAM); assay: CAM assay for angiogenesis; format: in vivo; conditions: control peptide, 1 mM, not shown
Procedure: In vivo angiogenesis was evaluated by a CAM assay (Ribatti et al., 1994). Fertilized eggs from White Leghorn chickens were maintained in constant humidity at 37° C. On the third day of incubation, a square window was opened in the eggshell and 2-3 ml of albumen was removed to detach the developing CAM from the shell. The window was sealed with a glass plate of the same size and the eggs were returned to the incubator. At day 8, 1 mm^3 sterilized gelatin sponges (Gelfoam, Upjohn Co, Kalamazoo, Milan) were adsorbed with VEGF-A (20 ng, R&D System) and either […] (SEQ ID NO:123) or control […] (SEQ ID NO:124) peptide (1 mM) in 3 μl PBS and implanted on the top of the growing CAMs under sterile conditions. CAMs were examined daily until day 12 and photographed in ovo with a Leica stereomicroscope. Capillaries emerging from the sponge were counted. The assay was repeated twice.

HUVECs [8] = assay: Three-dimensional Matrigel culture of HUVECs (capillary-like network); format: cell-based, human; conditions: 1 mM, 24 h, not shown
Procedure: Matrigel (Collaborative Research, Bedford, Mass.) was added at 100 μl per well to 48-well tissue culture plates and allowed to solidify for 10 min at 37° C. HUVECs were starved for 24 h in M199 medium supplemented with 2% FCS before being harvested in PBS containing 2.5 mM EDTA. 10^4 cells were gently added to each of the triplicate wells and allowed to adhere to the gel coating for 30 min at 37° C. Then, medium was replaced with indicated concentrations of […] (SEQ ID NO:123) or […] (SEQ ID NO:124) peptides in complete medium. The plates were photographed after 24 h with an inverted microscope (Canon). The assay was repeated three times.

GST-β5 integrin = target: T3, GST-β5 integrin (Homo sapiens, UniProt P18084); assay: Annexin V binding to GST-β5 cytoplasmic domain (ELISA), competition with VISY peptide; conditions: FIG. 20A
T3 construct: Plates were coated with GST fusion proteins of the cytoplasmic domains of various integrins and Annexin V was added to the plates
T3 sequence (P18084 743-799 limits assumed): T1 sequence (P18084 743-799 limits assumed)
Procedure: Competitive binding assays were performed to examine the binding of Annexin V to β5 integrin and the effect of the VISY peptide. Plates were coated with GST fusion proteins of the cytoplasmic domains of various integrins and Annexin V was added to the plates. Binding of Annexin V was determined using anti-Annexin V antibodies. […] Calcium was used because Annexin V activity has been reported to be modulated by calcium. Binding of Annexin V to GST-β5 was blocked by addition of the VISY peptide (FIG. 20A).
A reciprocal study was performed, using Annexin V to coat plates and adding GST fusion proteins of integrin cytoplasmic domains. Binding was assessed using anti-GST fusion protein antibodies. […] In some studies, calcium ion appeared to interfere with the binding interaction between GST-β5 and Annexin V, with decreased binding observed in the presence of calcium (not shown).

T2 sequence (Q07075 whole entry): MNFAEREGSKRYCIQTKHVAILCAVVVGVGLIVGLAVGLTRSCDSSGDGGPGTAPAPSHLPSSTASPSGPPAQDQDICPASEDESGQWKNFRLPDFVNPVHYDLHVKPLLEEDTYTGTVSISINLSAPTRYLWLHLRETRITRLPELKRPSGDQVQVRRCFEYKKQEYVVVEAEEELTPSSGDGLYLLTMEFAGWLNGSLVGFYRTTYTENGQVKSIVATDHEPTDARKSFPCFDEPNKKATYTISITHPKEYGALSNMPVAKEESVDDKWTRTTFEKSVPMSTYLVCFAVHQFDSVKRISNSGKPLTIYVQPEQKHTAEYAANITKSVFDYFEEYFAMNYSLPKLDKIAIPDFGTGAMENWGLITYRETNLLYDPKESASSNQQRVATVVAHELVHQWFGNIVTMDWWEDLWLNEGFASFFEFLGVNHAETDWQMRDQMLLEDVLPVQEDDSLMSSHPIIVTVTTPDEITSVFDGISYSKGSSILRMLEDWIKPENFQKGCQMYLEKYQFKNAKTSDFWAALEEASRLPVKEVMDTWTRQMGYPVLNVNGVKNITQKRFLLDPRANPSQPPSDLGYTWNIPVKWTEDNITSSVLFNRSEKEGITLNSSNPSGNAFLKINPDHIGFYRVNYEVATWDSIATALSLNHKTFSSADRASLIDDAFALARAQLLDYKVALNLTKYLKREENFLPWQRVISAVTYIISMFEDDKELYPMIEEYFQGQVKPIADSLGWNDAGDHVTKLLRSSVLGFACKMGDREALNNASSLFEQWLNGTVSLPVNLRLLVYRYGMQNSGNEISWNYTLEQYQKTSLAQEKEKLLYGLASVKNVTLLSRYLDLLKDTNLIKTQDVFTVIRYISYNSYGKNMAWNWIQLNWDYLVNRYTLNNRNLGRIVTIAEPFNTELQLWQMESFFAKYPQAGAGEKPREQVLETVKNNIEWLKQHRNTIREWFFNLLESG

COC(=O)C[C@H](NC(=O)[C@H](C)NC(=O)[C@@H](NC(=O)OCc1ccccc1)C(C)C)C(=O)CF [zVAD, reference compound] (Cbz-Val-Ala-Asp(OMe)-CH2F)
inhibition of VISY chimeric peptide-induced apoptosis (HUVEC; caspase inhibitor added at the same time as the VISY chimeric peptide): up to 70%

CKLWQEDGY
β5/GST Ratio [1]: 1.8

CLGQCASICVNDC
displacement of phage binding by CPRECESIC peptide (APA (SK-RC-49/APA cells) [2]): not affected
Round 2 (%) (APA (SK-RC-49/APA cells) [3]): 5%
enrichment in tumor xenografts compared to brain tissue [4]: Neither CYNLCIRECESICGADGACWTWCADGCSRSC (SEQ ID NO:125) nor CLGQCASICVNDC (SEQ ID NO:126) phage showed any tumor-homing preference

CPKVCPRECESNC
Round 2 (%) (APA (SK-RC-49/APA cells) [3]): 5%
enrichment in tumor xenografts compared to brain tissue [4]: 4 fold

CYNLCIRECESICGADGACWTWCADGCSRSC
displacement of phage binding by CPRECESIC peptide (APA (SK-RC-49/APA cells) [2]): displaced
Round 2 (%) (APA (SK-RC-49/APA cells) [3]): 50%
Round 3 (%) (APA (SK-RC-49/APA cells) [3]; share of phage inserts, round 3): 100%
enrichment in tumor xenografts compared to brain tissue [4]: Neither CYNLCIRECESICGADGACWTWCADGCSRSC (SEQ ID NO:125) nor CLGQCASICVNDC (SEQ ID NO:126) phage showed any tumor-homing preference

DWFSYYEL
β5/BSA Ratio ([1]; colonies from β5-GST wells divided by BSA): 153
β5/GST Ratio [1]: 1.7

GACVRLSACGA (disulfide 3-9 (inferred)) [unrelated cyclic control peptide, reference compound]
inhibition of chemotaxis of HUVECs (HUVECs [5]): no significant effect
competition with CPKVCPRECESNC phage for binding to SK-RC-49/APA cells (APA (SK-RC-49/APA cells) [2]; soluble peptide in binding medium, not shown): no competitive activity
inhibition of HUVEC proliferation (HUVECs [6]): no significant effect
effect on the number of growing vessels [7]: no effect
HUVEC morphogenesis / capillary-like network (HUVECs [8]): did not affect HUVEC morphogenesis

VVISYSMPD
induction of apoptosis (chromatin fragmentation) (HUVEC; 15 μM, 2-4 hours, FIG. 21): Neither VISY or penetratin alone induced apoptosis
effect on binding of Annexin V to GST-β5 (GST-β5 integrin): blocked
